Data reported in patent publication US20060148057A1, “Thioredoxin mutants and uses thereof” (priority 2002, published 2006).
Numbering of substitutions follows the chain as printed. Names may count otherwise. Values belong to the molecule of their own block, whether it stands above or below them.

What was measured:
Assay type in all cases: cell-based, Bovine
JNK = experiment: ASK1-induced JNK activation in BAEC, in vitro kinase assay with GST-c-Jun; details: co-expression with ASK1 1:1, 24 h post-transfection
Method: J Immunol. 159:3508-18 (1997)) using GST-MKK4 and GST-c-Jun (1-80) fusion protein as a substrate, respectively. Briefly, total 400 μg cell lysates were immunoprecipitated with 5 μg of antibody against ASK1 or JNK1 (Santa Cruz). The immunoprecipitates were mixed with 10 μg GST-MKK4 or GST-c-Jun (1-80) suspended in the kinase buffer (20 mM Hepes, pH 7.6, 20 mM MgCl2, 25 mM β-glycerophosphate, 100 μM sodium orthovanadate, 2 mM DTT, 20 μM ATP) containing 1 μl (10 μCi) of [γ-32P] ATP. The kinase assay was performed at 25° C. for 30 min. The reaction was terminated by the addition of Laemmli sample buffer and the phosphorylated GST-MKK4 or GST-c-Jun (1-80) was visualized by autoradiography.
Trx-C32S and Trx-C35S (but not Trx-WT) inhibits ASK1-mediated EC apoptosis induced by TNF. To determine the biological consequence of Trx-induced ASK1 ubiquitination/degradation, the effects of Trx on ASK1-induced apoptosis were examined. ASK1-induced activation of JNK and caspase 3 has been implicated in cell d e a t h (Hatai T et al. Execution of apoptosis signal-regulating kinase 1 (ASK1) induced apoptosis by the mitochondria-dependent caspase activation. J Biol Chem.275:26576-81 (2000); Tournier C et al. Requirement of JNK for stress-induced activation of the cytochrome c- mediated death pathway. Science. 288:870-4 (2000)). First, the effects of Trx on JNK activation induced by ASK1 were examined. BAEC were co-transfected with ASK1 and Trx expression constructs as indicated, and JNK activity was measured by an in vitro kinase assay using GST-c-Jun as a substrate. […] Co-expression of Trx-WT, Trx-C32S and Trx-C35S (but not Trx-CS) inhibited ASK1-induced JNK activity (FIG. 6A top panel). Western blot with anti-Flag indicated equal amounts of Trx proteins were expressed (FIG. 6A bottom panel). Similar results were obtained in human EC (HUVEC).

Akt = experiment: ASK1-induced inhibition of IGF1-induced Akt phosphorylation in EC (Western blot p-Ser473); details: co-expression with ASK1, IGF1 10 ng/ml for 10 min
Method: EC were transfected with plasmids as indicated: control vector (VC), HA-Akt, HA-ASK1 with different Trx constructs. Cells were treated with IGF1 (10 ng/ml for 10 min). Akt hosphorylation was examined by western blot with phospho-Akt (Ser473)-specific antibody (p-Akt). Akt and ASK1 expression were determined by western blot with anti-HA.
To determine a role of ASK1 in ROS/TNF-induced IR (impairment of insulin/IGF1 signaling) in EC, the effects of ASK1 activation on IGF1-induced phosphorylation of IRS-1, Akt and eNOS activity were examined. IGF-1 was chosen because cultured EC express IGF1 receptor at higher level than that of insulin receptor. BAEC were transfected with VC or ASK1 expression construct, cells were treated with IGF1 (10 ng/ml) for indicated time. SOCS3 was used as a control which has been shown as a suppressor of IRS-1 activation. Activation (tyrosine phosphorylation) of IRS-1 was determined by IP/Western blot with anti-phosphotyrosine. Akt phosphorylation at Ser-473, a hallmarker for Atk activity was determined by Western blot with p-Ser473-specific antibody. The eNOS enzymatic activity was also by an enzymatic assay based on the conversion of 3H-L-arginine to 3H-citrulline (Calbiochem, Nitric Oxide Synthase Assay Kit).
To determine if Trx protects ASK1-induced inhibition on IGF1 signaling, Trx and ASK1 were coexpressed as in the above experiments. […] To test this, the effects of TZDs (insulin-sensitizers) and statins on ASK1 activity were tested. […] Inhibition of ASK1 may due to their anti-oxidant activities of these drugs which may be indirect by inhibiting TNF-dependent generation of ROS.

BAEC = experiment: GFP killing assay, TNF+CHX-induced EC death; details: TNF 10 ng/ml plus CHX 10 μg/ml for 24 h; vector control 25% survival
Method: Trx inhibits ASK1-induced JNK activation and caspase 3 activity. BAEC were co-transfected with ASK1 and Trx constructs in 1:1 ratio as indicated: control vector alone (Ctrl), ASK1 with VC, Trx-WT, Trx-CS, Trx-C32S or Trx-C35S. 24 h post-transfection, cell lysates were used to examine JNK and caspase 3 activity. […] JNK activity was measured by an in vitro kinase assay GST-c-Jun as a substrate. Trx expression was determined by Western blot anti-Flag. […] Caspase 3 activity was measured by Sigma's Caspase 3 Fluorometric Assay Kit in the absence or presence of caspase 3 inhibitor Ac-DEVD-CHO. Assay was performed as duplicates. Caspase 3 activities were normalized with the Ctrl group (as zero). Data are presented from mean of two independent experiments. […] 48 h after transfection, GFP-positive cells were counted as survival cells. […] GFP-positive cells were counted as survival cells. […]
Quantitation of cell killing: Cell killing assay was performed as described previously with a modification (Slowik M R et al. Evidence that tumor necrosis factor triggers apoptosis in human endothelial cells by interleukin-1-converting enzyme-like protease- dependent and -independent pathways. Lab Invest. 77:257-67 (1997)). […] GFP-positive cells were visualized under a fluorescence microscope and counted as number of survival cells. […]

ASK1-induced JNK activity (JNK): inhibited
B1: thioredoxin (protein)
chain: MVKQIESKTAFQEALDAAGDKLVVVDFSATWCGPCKMIKPFFHSLSEKYSNVIFLEVDVDDCQDVASECEVKCMPTFQFFKKGQKVGEFSGANKEKLEATINELV
modifications: Flag tag or GST fusion
notes: Flag-tagged or GST fusion
ASK1-induced reduction of Akt phosphorylation (Akt): prevents

ASK1-induced JNK activity (JNK): inhibited
B2: Trx-C32S: C32S single mutant of Trx at the catalytic site, SEQ ID NO:2 (protein)
chain: B1 chain with C32S
ASK1-induced reduction of Akt phosphorylation (Akt): prevents

ASK1-induced JNK activity (JNK): inhibited
B3: Trx-C35S: C35S single mutant of Trx at the catalytic site, SEQ ID NO:3 (protein)
chain: B1 chain with C35S
survival after TNF+CHX (GFP-positive cells, Ctrl as 100%) (BAEC): 100±12%
ASK1-induced reduction of Akt phosphorylation (Akt): prevents
